The target of the series is RNA polymerase I (13-subunit complex) (Homo sapiens (HEK293T), UniProt O95602;Q9H9Y6;O15160;P0DPB6;Q9P1U0;Q3B726;Q9GZS1;O15446;P19388;P61218;P52434;P53 …). As to the kind of experiment: cryo-EM structure; open complex, inactive state, 3.3 A; RRN3 in sample but not bound in this class; downstream duplex traced, bubble not stably bound at active site; EM buffer: 15 mM HEPES pH 7.5, 80 mM (NH4)2SO4, 5 mM MgCl2, 10 mM DTT; scaffold annealed in 20 mM HEPES pH 7.5, 12 mM MgCl2, 100 mM NaCl, 10 mM DTT (1x, from printed 2x); complex incubation temperature not given. The settings on record: protein: native; copies: 1;1;1;1;1;1;1;1;1;1;1;1;1; 43-bp duplex with 12-nt mismatch bubble, blunt.

B1: Pol I OC scaffold (template/nontemplate DNA, no RNA) (dsDNA)
DNA 1: GTACTGAATTAGACAATGCTCTGTGGCTCTAGTACCATGAGCG
DNA 2: CGCTCATGGTACTAGGCTTCGGAGAAGTTGTCTAATTCAGTAC
Turning to B1, the binding result is on record as “binds”.

Source of the values: publication PMC8660638.
